From the RNAGym collection of RNA variant scans (doi:10.1073/pnas.2313332121)

B1: TPR t1 (parent)
chain: GACCAAUCUGCCCUCAGAGCUCGAGAACAUCUUCGGAUGCAGAGGAGGCAGGCUUCGGUGGCGCGAUAGCGCCAACGUCCUCAACCUCCAAUGCAUCCCACCACAUGAUGAUGCCUGAAGAGCCUUGGUUUUUUG

Variants of: B1
Assay: polymerase ribozyme fitness, log enrichment relative to wild type (log ratio); higher = more active; in vitro selection for triplet polymerase activity
Summary of the method: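 Input and output libraries were sequenced on Illumina after a single in vitro selection round, run in triplicate on PCR-built, transcribed mutant libraries of each subunit of a heterodimeric triplet polymerase ribozyme. Selection annealed libraries to a biotinylated primer, the partner subunit and triplets, incubated them frozen at −7 °C, then gel-excised extended constructs for streptavidin-bead capture and RT-PCR. Genotypes with ≥10 input reads and ≥1 read per output were kept. Fitness is the logarithm, taken in base 2, of genotype enrichment divided by wild-type enrichment, using inverse-variance-weighted replicate averages.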

Variant	polymerase ribozyme fitness (log ratio)
C11G C70U C79A	-1.87
C11G C72A C79U A90G C101G A121C U131A	0.276
C11G C72G C82G G117C	-3.64
C11G C73G	-0.268
C11G C73U	0.123
C11G C73U C80U	-0.636
C11G C73U C85A A111G	-0.304
C11G C76U C99A U130G	-6.95
C11G C76U G120A	2.23
C11G C80A G117C C123U	-7.43
C11G C86G	-1.7
C11G C88U U116C	-0.109
C11G C115G	-1.35
C11G C123G	0.989
C11G C123U	0.785
C11G C124A	2.13
C11G G17A G58A U106A U129A	-5.54
C11G G17A U81A C85U G117C	-4.91
C11G G19A C53U C89A	-2.96
C11G G19A U38G	-2.63
C11G G19U C82U	-5.29
C11G G23C U32C G61A C86U U133A	-5.64
C11G G25C G39A C56A C72G C82A A111C	-7.55
C11G G35C G71U G110U	-7.04

Variant	polymerase ribozyme fitness (log ratio)
C11G G36A G47C G117A U129A	-4.45
C11G G36U A43U G61A G63A C115U U125A U132A	-6.45
C11G G36U G47U G63A U78G	-2.93
C11G G39A C49G C53U G69A A75U G120C	-2.05
C11G G42C	-1.1
C11G G42C C53A	-1.03
C11G G42C G69U A111C	-0.0543
C11G G42U A84U	-1.53
C11G G42U C124U	0.5
C11G G42U G45U G51C G120A U134G	-4.64
C11G G44A A68G	-4.14
C11G G44A A121U	1.52
C11G G44A G60A A121U	1.14
C11G G45U	-2.69
C11G G45U G51C G61A	-3.84
C11G G51U C62A G71A C89U C97U	-6.66
C11G G52A C94A	0.0249
C11G G52U C56G C102U A103C	-6.01
C11G G61A C124A	2.07
C11G G61C A66U A75C C114U	-3.81
C11G G63A	-0.354
C11G G63A C82G G117U C123G	-2.82
C11G G63C	-0.406
C11G G63U C88A	-1.57

Variant	polymerase ribozyme fitness (log ratio)
C11G G69C	-1.7
C11G G71U	0.0897
C11G G77A	-0.375
C11G G107U	-3.64
C11G G117U	-1.54
C11G G120A	1.51
C11G G120C	1.89
C11G G120U	1.37
C11G G127C	-0.995
C11G U21A C53A C97G	-3.53
C11G U33G G93U U112A G122U	-6.28
C11G U54C G60U C86U	-0.56
C11G U59A	0.0952
C11G U59G U92A C114U A121C G128U	-3.21
C11G U78C	0.168
C11G U96G	-0.325
C11G U125A	-0.25
C11G U126A	-0.924
C11G U126C	-0.774
C11U	-0.381
C11U A18C A29C C101A G110C	-7.19
C11U A18C C73U G127A	-5.36
C11U A18G G19C A43G G63U	-4.05
C11U A24U G65C A103C A108U A111U	-6.52

Variant	polymerase ribozyme fitness (log ratio)
C11U A26G G45A G58A	-5.7
C11U A26U A46C C49G C72U C86G	-6.59
C11U A26U C49G C73U	-3.93
C11U A27U	-1.89
C11U A27U A103U G120C G122U	-5.67
C11U A27U G52C G61C	-4.18
C11U A29G C53U	-2.33
C11U A37G U96G	-2.69
C11U A41G C104A C123U U125C	-1.19
C11U A41G U78G C97U	-1.63
C11U A41U C62U C85A C102U C114G G120C	-6.27
C11U A43G	-2.11
C11U A43U C53G	-2.46
C11U A43U G60U A90C	-1.62
C11U A46U C86G C104U	-2.24
C11U A46U C86U	-2.1
C11U A50C G60U G77A G122A	0.303
C11U A66C C94U	-1.69
C11U A118G U133A	-0.694
C11U A121G	1.13
C11U C12A A41C C56G	-2.42
C11U C12A U14G G36U	-4.16
C11U C12G C15U C70U	-1.83
C11U C12G C28U U32C C49A C56G	-2.91

Variant	polymerase ribozyme fitness (log ratio)
C11U C12U A111C G122A	-0.0374
C11U C15A A26G C53G G63U G120C	-4.53
C11U C15G G36C	-7.38
C11U C15G U112A	-2.98
C11U C15U	-2.2
C11U C15U G61A U78A G93A	-2.54
C11U C20A A29U G117U	-4.71
C11U C20A U87A A91C A118U	-2.95
C11U C20G C72U	-3
C11U C22A A37G A68G C72A U109A	-5.84
C11U C22A C124U	-3.19
C11U C22G A26C	-3.57
C11U C22G A111G G122U U129C	-6.1
C11U C22G C31A C72G C99U C123A	-5.82
C11U C22U U38C	-4.76
C11U C28G A83C C85U	-4.39
C11U C34A	-2.54
C11U C34A U87A	-3.12
C11U C34G A46U G120A A121G	-5.6
C11U C34G C89U A105C U106A	-4.08
C11U C40U G122A	0.00533
C11U C49U	-1.29
C11U C49U C101A	-2.29
C11U C53A C97U	-1.37

Variant	polymerase ribozyme fitness (log ratio)
C11U C53U C94G C123G	-1.5
C11U C53U G110A U129A	-3.35
C11U C56A C123U	1.37
C11U C56A U116C	-2.85
C11U C56G U112G	-0.0117
C11U C56U G128C	-3.11
C11U C62G	-1.21
C11U C70A	-0.922
C11U C70A A121C	0.0688
C11U C72G	-0.586
C11U C72U A83U C101G	-1.79
C11U C73U C114A C123U	-2.7
C11U C79G	-1.69
C11U C79G U92A U106C U112A	-5.83
C11U C82A	-1.02
C11U C86A C104U	-1.37
C11U C88G C114A U126A	-5.99
C11U C89A	-2.85
C11U C94G	-1.27
C11U C94U	-1.24
C11U C97A	-4.6
C11U C98U	-1.79
C11U C102U	-2.09
C11U C123U	1.77

Variant	polymerase ribozyme fitness (log ratio)
C11U G19A C53G U55A A91C	-2.36
C11U G19A G61A U131G	-3.33
C11U G23A G110C U130G	-6.32
C11U G35U G39U C56A G71U G122A	-6.34
C11U G36A G63U	-2.37
C11U G36U	-1.77
C11U G39U	-1.37
C11U G39U C79U G93U	-2.7
C11U G39U C102A C104U A111G	-1.71
C11U G42C	-2.01
C11U G44A	-1.49
C11U G44A C79U A119U	-1.69
C11U G44C	-1.47
C11U G44C C104U U116C	-3.59
C11U G45A G48A	-2.77
C11U G45C	-1.59
C11U G48U G113A	-2.84
C11U G52A A118G	-0.222
C11U G52A C80U	-2.45
C11U G52U C70A	-1.84
C11U G60U U78C U116C	-2.11
C11U G63A C72A	-7.14
C11U G63C C80U	-2.73
